Data: patent publication US20060241020A1, “Protein tyrosine phosphatase inhibitors” (Applied Research Systems ARS Holdings N.V., priority 2002, published 2006)

Assay: pNPP hydrolysis, kinetic parameters
Type: biochemical
Conditions: generic substrate pNPP, 0-60 mM, pH 6.8, room temperature
Description: For pNPP hydrolysis, 200 ng of PTP was incubated with varing amounts of the generic substrate (0-60 mM) in assay buffer (50 mM Tris pH 6.8 and 2 mM DTT) in a total volume of 50 μl at room temperature. Plates were read at 405 nm and kinetic parameters were determined using a non linear regression programme (Graphpad, Prism®).

B1: Sap-1WT: wild-type PTP-Sap1 catalytic domain (GST fusion) tested on pNPP (protein)
chain: LKRRNKKKQQKPELRDLVFSSPGDIPAEDFADHVRKNERDSNCGFADEYQQLSLVGHSQSQMVASASENNAKNRYRNVLPYDWSRVPLKPIHEEPGSDYINASFMPGLWSPQEFIATQGPLPQTVGDFWRLVWEQQSHTLVMLTNCMEAGRVKCEHYWPLDSQPCTHGHLRVTLVGEEVMENWTVRELLLLQVEEQKTLSVRQFHYQAWPDHGVPSSPDTLLAFWRMLRQWLDQTMEGGPPIVHCSAGVGRTGTLIALDVLLRQLQSEGLLGPFSFVRKMRESRPLMVQTEAQYVFLHQCILRFLQQSAQAPAEKEVPYEDVENLIYENVAAIQAHKLEV
modifications: left off: a dimerising Fc or GST
notes: wild-type PTP-Sap1 catalytic domain (GST fusion) tested on pNPP
Km: 2660 µM
